Consider four substances from patent publication US7083511.

One data set deals with T1, RPRTSTF.
T1 sequence: RPRTSTF

For the next data set, the system named is T2, RPRTSAF.
T2 sequence: RPRTSAF

The test system of the next data set is T3, RPKTSSF.
T3 sequence: RPKTSSF

The test system of another data set is T4, KPRTSSF.
T4 sequence: KPRTSSF

In a further data set the test system is T5, PRTSSF.
T5 sequence: PRTSSF

In a further data set the test system is T6, RPRTSSK.
T6 sequence: RPRTSSK

A further data set concerns T7, RPRAATF.
T7 sequence: RPRAATF

A further data set relates to T8, RPRTSSL.
T8 sequence: RPRTSSL

A further data set deals with T9, RPRTSSF.
T9 sequence: RPRTSSF

A further data set concerns T10, RPRTSSA.
T10 sequence: RPRTSSA

In another data set the test system is T11, Crosstide (GRPRTSSFAEG).
T11 sequence: GRPRTSSFAEG

The test system of a further data set is T12, RPRTSSE.
T12 sequence: RPRTSSE

Another data set deals with T13, RPRTSSV.
T13 sequence: RPRTSSV

The test system of another data set is T14, RPRTSS.
T14 sequence: RPRTSS

“And” between values parts separate entries of the source, which are not always exact repeats. Identical values can stand only once.

For GST-PKBα, the kinase activity toward peptide (30 µM), relative to peptide 1 (Crosstide) was 208% in the data set on RPRTSTF; less than 1% in the data set with RPRTSAF; 26% in the data set on RPKTSSF; 6% with KPRTSSF; less than 1% in the data set with PRTSSF; 48% in the data set on RPRTSSK. For the same substance, the kinase activity toward peptide (30 µM), relative to peptide 1 (Crosstide) in the data set with RPRAATF was 55%; in the data set on RPRTSSL, 69%; in the data set with RPRTSSF, 160%; in the data set with RPRTSSA it was 26%; in the data set on Crosstide (GRPRTSSFAEG), 100%; with RPRTSSE it was 21%. The values for the kinase activity toward peptide (30 µM), relative to peptide 1 (Crosstide) with RPRTSSV and with RPRTSS were 67% and less than 1%, respectively.
Take GST-SGK2α[S356D]: the kinase activity toward peptide (30 µM), relative to peptide 1 (Crosstide) with RPRTSTF was 192%; in the data set with RPRTSAF, less than 1%; in the data set with RPKTSSF it was 8%; with KPRTSSF, less than 1%; in the data set with PRTSSF it was less than 1%; in the data set on RPRTSSK it was 128%. Moreover, the kinase activity toward peptide (30 µM), relative to peptide 1 (Crosstide) worked out at 61% with RPRAATF; 185% in the data set with RPRTSSL; 182% in the data set with RPRTSSF; 82% in the data set with RPRTSSA; 100% with Crosstide (GRPRTSSFAEG); 34% with RPRTSSE. For the same substance, the kinase activity toward peptide (30 µM), relative to peptide 1 (Crosstide) is 124% with RPRTSSV and 8% with RPRTSS.
Take GST-ΔN-SGK3[S419D]: the kinase activity toward peptide (30 µM), relative to peptide 1 (Crosstide) in the data set on RPRTSTF is 156%; with RPRTSAF, less than 1%; with RPKTSSF, 48%; with KPRTSSF, less than 1%; in the data set on PRTSSF it was less than 1%; with RPRTSSK, 200%. Further, the kinase activity toward peptide (30 µM), relative to peptide 1 (Crosstide) stood at 56% in the data set with RPRAATF; 113% with RPRTSSL; 137% in the data set with RPRTSSF; 123% in the data set with RPRTSSA; 100% with Crosstide (GRPRTSSFAEG); 67% in the data set on RPRTSSE. For the same substance, the kinase activity toward peptide (30 µM), relative to peptide 1 (Crosstide) in the data set with RPRTSSV is 139%; with RPRTSS it was 18%.
In the case of GST-ΔN-SGK(61-431)[S422D], the kinase activity toward peptide (30 µM), relative to peptide 1 (Crosstide) was less than 1% in the data set with RPRTSAF; 2% and < 1% with KPRTSSF; less than 1% in the data set with PRTSSF; 154% and 135% with RPRTSSF; 100% with Crosstide (GRPRTSSFAEG); 5.1% and 10% in the data set on RPRTSS.
